Laboratory results taken from the nanobody polyreactivity screen of Harvey et al. (2022).

Assay: yeast display, Sf9 membrane polyspecificity reagent, FACS + sequencing; frameworks hold sequencing errors
Outline: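 Nanobodies came from a synthetic yeast display library in Saccharomyces cerevisiae BJ5465, induced with galactose for 36–48 hours and stained for 1 hour at 4 °C with 10% biotinylated, detergent-solubilized Sf9 membrane reagent. Cells were enriched on streptavidin microbeads and then FACS-sorted, with low and high (top ~1%) gates set on anti-HA fluorescence for expression and streptavidin fluorescence for reagent binding. Each polyreactivity label reflects the gate a clone came from. Genes were amplified by colony PCR, sequenced by MiSeq 2 × 250 and filtered by CDR length.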

Sequence	polyreactivity (PSR sort gate)
QVQLVESGGGLVQAGGSLRLSCAASGRTFDYYAMGWYRQAPGKERELVAAIRLISGNRYYADSVKGRFTISRDNAKNTVYLQMNSLKPEDTAVYYCAARSDGVPSLYGGMDYWRQGTQVTVSS	low polyreactivity
QVQLVESGGGLDQAGGSLRLICAASGITIEYYAMAWYRTAPGKERELVAAISSGGGSTYYADSVKGRFTISRDNAKNSVYLQMISLKPEDTAVYYCAADIVSSPSSYVPPGDYWGQGTQVTVSS	low polyreactivity
QVQLVESGGGLVQAGGSLRLSCAASGSIFADYAMGWYRQAPGKERELVAAITASGGTTYYADSVKGRFTISRDNAKNTVYVQMNSLKPEDTAVYYCNAGNRTFLYDRDDYWGQGTQVSVSS	high polyreactivity
QVQLVESGGGLVQAGGSLRLSCAAYGIIFNSYFMGWYRPAPGKERELVAAITGSCGRTYYADSVKGRFTISRDNAKNTVYLQIISLKPEDTAVYYCSATNRGQVYGAWYNSWGQGTQVTVSS	high polyreactivity
QVQLVESGGGLVQAGGILRLSCAASGIIFQRNEMGWYRQTPGKERELVANIRDGGITYADSVKGRFTISRDNAKNTVYLEMNSLKPEDTAVYYCARDDTSPGYCDQSSNAAYYYWGQGTQVTVSS	low polyreactivity
QGKLVESGGGLVQAGGSLRLTCPASGSIFRLNTMGWYRQAPGKEREFVAAISKGGTSTYYADSVKGRFTISRDNAKNTVYLQLTSLIPEDTAVYYCARKRYPSAPFQYDYWGQGTQVTVSS	high polyreactivity
QVQLVESGGGLVQAGGSLRLSCAASGRTFFRYVMGWYRQAPGKERELVAAISTRGGSTYYADSVKGRFTISRDNAKNTVYLQMNSLKPEDTAVYYCAARFKVRDYSYNYWGQGTQVTVSS	high polyreactivity
QVQLVESGGGLVQAGGSLRLSCAASGSTLRRYAMGWYRQAPGKERDLVAAITSRGTDTYYADSVKGRFTISRDNAKNTVYLQMNSLKPEDTAVYYCAASWVAGGHYGYDYWGQGTQVTVSS	high polyreactivity
QVQLVESGGGLVQAGGSLRLSCAASGSTFVRYAMGWYRLAPGKERELVAAIAKSGGSTYYADSVKGRFTISRDIAKNTVYLQMNSLKPEDTAVDYCNSDVYKNSKVRIMGYWGLGTQVTVSS	low polyreactivity
QVQLVESGGGLVQAGGSLRLTCAASGFIFPWNAMAWFRQAPRKERELVAAISFSGGSTYYADSVKGRFTISRDNAKNTVYLQMNSLKPEDTAVYYCAKRTWDLRRTRHYYWGQGTQVTVSS	low polyreactivity
QVQLQESGGGLVQAGGSQRLSCAASGYIFYFQYMGWYRQAPGKEREFVAAISDGANTNYADSVKGRFTISRDNAKNTEYLQMNSLKPEDTAVYYCAVYADENYYYIYWGQGTQVTVRS	low polyreactivity
QVHLVESGGGLVQAGGSLRLSCAASGSTFYYYAMGWYRQAPGKERELVAVITSGGSTNYADSVKGRFTISRDYAKNSVYLQMNSLKPEDTAVYYCNVGPSTYYQYDYWGQGTQVTVSS	high polyreactivity
QVQLVESGGGLVQAGGSLRLSCAASGMTLGSYAMGWDRQAPGKERELVAAISRRSGRTYYADSVKGRFTISRDNAKNTVYLKMNSLKPEDTAVFYCNRGYTAQVYTEFDDWGQGTQVTVSS	low polyreactivity
QVQLVESGGGLVQAGGSLRLSCAASGSIFWGNAMGWYRPAPGKERELVASISDSGGSTYADSVKGRFTISRDNAKNTVYLQMNSLKPEDTAVYYCAADDWYSAGIRNWYYGGYDYWGQGTQVTVSS	low polyreactivity
QVQLVESGGGLVQAGGTLRLSCAASGSTFELNVMGWYRQAPGKERELVAAISSGTSTNYADSVKGRFTISRDNAKYTVYLHLKSVKPVDTAVYYCAADPFTIPTSDFYYWGQVTQVTVSS	low polyreactivity
QVQLVESGGGLVQAGGSLRLSCAASGRTFNIYDMGGYIPAPGTERELVAAITGRGTGTYYADSVKGRFTISRDNAKNTVYLQMNSLKPEDTAVYFCAAVRRWYYPALSEHDYWGQGTQVTVSS	low polyreactivity
QVQLPGSGGGLVQAGGSLRLSCAASGYIFQNVPMGWTRQAPGKERDLVAGIDNGTSTNYADSVNGRFTISRDNAKNTVYLQMNSLKPEDTAVYYCAAAGQADDTLGYWGQGTQVTVSS	low polyreactivity
QVQLVESGGGLVQAGGSLRLSCAASGFTFGFYAMGWYRQAPGKERELVAAITSGGGTTYYADSVKGRFTISRDNAKNTVYLQMNSLKPEYTAVYYCNADPDVPFFSWLTGRGTYDYWGQGTQVTVSS	low polyreactivity
QVQLVESGGGRVQAGGSLRLRCAASGRTFRYYAMVWYRQAPGKERELVAAISRTGGSTYYADSVKGRFTISRDNAKNNVYLQMNSLKPEDTAVYYCAARYAEYGSWGQGTQVTVSS	high polyreactivity
QVQLVESGGGLVQAGGSLRLSCAASGSIFAYNAMGWYRQAPGKERELVAAITGSGGSTDYADSVKGRFTISRDNAKNTVYLQMNSLKPEDTAVYYCNADWWSEWKLYDYWGQGTQVTVSS	low polyreactivity
QVQLVESGGGLVQAGCRLRLSCAASGFIFCYNAMGLYRQAPGKERELVAAITTAGSTNYADSVKGRFTISRDNAKNTVYVQMNSLKPEDTAVYYCNKVQLRNRYPYRYGFGDVGYWGQGTQVTVSS	low polyreactivity
QVQLVESGGGLVQAGGSLRLSCAASGFIFGVYAMGWYRQAPGKERELVAAISRSGGSTYYADSVKGRFTISRDNAKNTVYLQMNSLKPEDTAVYYCAVRGSWYSEHNYWGQGTQVTVSS	high polyreactivity

Sequence	polyreactivity (PSR sort gate)
QVQLVESGGGLLQAGGSLRLSCAASGRTFVYYAMGWYRPAPGKERELVAAITSSGSRTYYADSVKGRFTISRDNAKNTVYLQMNSLKPEDTAVYYCAADYVAHGDYRVLYDYWGQGTQVTVSS	low polyreactivity
QVQLVESGGGLVQAGGSLRLSCAASGSISAIYTMGWYRQATGKERELVAAITGSAGSTYADSVKGRFTISRDNAKNTVYLQMNSLKPEDTAVYYCNAQPGDDVKVKLDYWGQGSQVTVSS	low polyreactivity
QVQLVESGGGLVQAGGSLRLSCAASGSIFNGNDMGWYRQAPGKERELVASITSNGGRTYYADSVKGRVTISRDNAKNTVYLQMNSLKPEDTAVYYCAAGYYILYIWKFDYWGQGTQVTVSS	high polyreactivity
QVQLVESGGGLVQAGGSLRLSCAASGFIFARNTMGWYRQAPGKERELVAAITKSGGSTYYADSVKGRFTISRDNAKNTVYLQMNSLKPEDTAVYYCAARTYTLRGVYFSGYNYWGQGTQVTVSS	low polyreactivity
QVQLVESGGGLVQAGGSLRVSCAASGSTFYYNAMGWYRQATGKERELVAAITRSAGSTYYADSVKGRFTISRDNAKNTVYLQMNSLKPEDTAVYYCNARYSFYGSYWTSGKYDYWGQGTQVTVSS	high polyreactivity
QDQLVESGGGLVQAGGSLRLSCADSGSNFKYNAMGWYRPAPGKERELVAAISTRGSTTNYADSVKGRFTISRDNAKNTVYLQMNSLKPEDTAVYDCNKYANRRDRTRGADYDYWGQGTQVTVSS	high polyreactivity
QVQLVESGGGLVQAGGSLRLSCAASGFTFYNNAMGWYRQAPGKERELVAVITSNGGRTYYADSVKGRFTISRDNAKNTVYLQMNSLKPEDTAVYYCAKDYKALYLYHYRISGGDVDYWGQGTQVTVSS	low polyreactivity
QVQLVESGGGLVQAGGSLRLSCAASGRTFQVYAMGWYRQAPGKERELVAAISSSGGITYYADSVKGRFTISRDNAKNTVYLQMNSLKPEDTAVYYCNTLYVSSNEYWGQGTQVTVSS	high polyreactivity
QVQLVESGGGLVQAGGSLRLSCAASGSTLWFNAMGWYRQAPGKERELVAAINWSGGSTYYADSVKGRFTISRDNAKNTVYLQMNSLKPEDTAVYYCAAVYQYVHYVWYDYWGQGTQVTVSS	low polyreactivity
QVQLVESGGGLVQAGGSLRLSCAASGRTFVGYAMGWYRQAPGKERELVAAISGGGRTNYADSVKGRFTISRDNAKNTVYLQMISLKPEDTAVYYFAARLVKYFRPYDYWGQGTQVTVSS	high polyreactivity
QVQLVESGGGLVQAGGSLRLSCAASGFTFKRYAMGWYRQARGKERELVAAISWSGSSTYYADSVKGRFTISRDNAKNTVYLQMNSLKPEDTAVYYCAARSFRPAYDYWGQGTQVTVSS	high polyreactivity
QVQHVESGGGLVQAGGSLRLSCAASGSIFGRYAMGWYRPAPGKERELVAAITRSGVSTYYADSVTGRFTSARDNAKNTVDLQMNSLKPEDTAVYYCNAYYPIRSSPYGYYYWGQGTQVTVSS	high polyreactivity
QVQLVESGGGIVQAGGSLRLSCAASGRIFKYNAMGWYRQAPGKERELVAAISWSDGSTYYADSVKGRFTISRDNAKNTVYLQMNSLKPEDTAVYYCAARGYGFPELDYWGQGTQVTVSS	high polyreactivity
QVQLVESGGGLVQAGGSLRLSCAASGSIFGRYPMGWYRQAPGKERELVAAISRRGGSTYYADSVKGRFTISRDNAKNTVYLQMNSLKPEDTAVYYCAARPFVKHDYWGQGTQVTVSS	high polyreactivity
QVQLVESGGGLVQAGGSLRLSCAASGSTFRYYAMGWYRQAPGKERELVAGISSSGGRTYYADSVKGRFTISRDNAKNTVYLQMNSLKPEDTAVYYCAAVRSSWSYYYWGQGTQVTVSS	high polyreactivity
QFQLVESGGGLDQAGGSLRLICAASGITFDTNLMGWYRQAPGKERELVAAISARGGSTYYADSVKGRFTISRDNAKNTVYLQMNSLKPEDTAVYYCNAVIRPWQSYYYWGQGTQVTVSS	high polyreactivity
QVQLQESGGGLVQAGGSMRLSCAASGYNTIEVTRACFARRRAKNANLLPLLITVVLPIKRIAYNTISRDNAKNTVYLQMNSLKPEDTAVYNCAANTIGTDLYEYWGQGTQATVSS	low polyreactivity
QVQLVESGGGLVQAGGSLRLSCAASGFIFYDYAMGWYRQAPGKERELVAVITRGGSTYYADSVKGRFTISRDNAKNTVYLQMNSLKPEDTAVYYCAAYWFTPGFTFDYWGQGTQVTVSS	low polyreactivity
QVQLVESGGGLVQAGGSLRLSCAASGFTFYKYVMGWYRQAPGKERELVAAITQGGGSTYYADSVKGRFTISRDNAKNTVYLQMNSLKPEDTAVYYCAAVTRGSRGVNFGYWGQGTQVTVSS	high polyreactivity
QVQLVESGGGIVQAGGSLRLSCAASGFTFWRYARGWYRQAPGKERELVAGISSGGSTNYADSVKGRFTISRDNAKNTVYLQMNSLKPEDTAVYYCAARGNYFYGIYGYWGQGTQVTVSS	low polyreactivity
QLQLVESGGGLVQAGGSLRLSCAASGFTFYVNAMGWYRQDPGKETEFVAAIDWSDTSTYYADSVKGRFTISRDNAKNTVYLQMISLKPVDTAVYYCAADFSPYDYDYWGQGTQVTVSS	high polyreactivity
